Data: article PMC8860585, “TRIM21 suppresses CHK1 activation by preferentially targeting CLASPIN for K63-linked ubiquitination” (Nucleic Acids Research, 2022)

Molecular target: T1, HIS-TRIM21 (human, UniProt P19474 1-475)
T1 construct: human TRIM21 cDNA (full length cDNA by the plasmid paragraph) cloned into pET28a; source: bacterially purified (pET28a)
Experiment: pull-down; GST-CLASPIN 301–630aa immobilized on Glutathione Sepharose 4B beads incubated with HIS-TRIM21 for 4 h at 4°C; HIS-TRIM21 by immunoblot
Conditions: both partners purified

T1 sequence (P19474 whole entry): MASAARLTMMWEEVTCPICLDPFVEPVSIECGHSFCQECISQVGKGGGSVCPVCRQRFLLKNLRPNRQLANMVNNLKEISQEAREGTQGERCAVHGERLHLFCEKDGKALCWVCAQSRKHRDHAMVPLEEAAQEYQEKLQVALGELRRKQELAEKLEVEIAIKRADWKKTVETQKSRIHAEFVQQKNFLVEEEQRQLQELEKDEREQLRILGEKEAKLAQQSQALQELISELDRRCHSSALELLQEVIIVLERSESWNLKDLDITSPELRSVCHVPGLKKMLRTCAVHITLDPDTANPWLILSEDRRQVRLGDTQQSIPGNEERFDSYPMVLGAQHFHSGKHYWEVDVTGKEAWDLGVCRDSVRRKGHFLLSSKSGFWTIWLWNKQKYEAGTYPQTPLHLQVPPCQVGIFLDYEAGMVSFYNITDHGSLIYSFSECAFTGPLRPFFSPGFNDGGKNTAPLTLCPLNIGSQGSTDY

B1: GST-CLASPIN 301–630aa (domain or fragment, human, UniProt Q9HAW4 301-630, looked up)
chain: ALNLPYHMPENKTIHDFFKRKPRPTCHGNAMALLKSSKYQSSHHKEIIDTANTTEMNSDHHSKGSEQTTGAENEVETNALPVVSKETQIITGSDESCRKDLVKNEELEIQEKQKQSDIRPSPGDSSVLQQESNFLGNNHSEECQVGGLVAFEPHALEGEGPQNPEETDEKVEEPEQQNKSSAVGPPEKVRRFTLDRLKQLGVDVSIKPRLGADEDSFVILEPETNRELEALKQRFWKHANPAAKPRAGQTVNVNVIVKDMGTDGKEELKADVVPVTLAPKKLDGASHTKPGEKLQVLKAKLQEAMKLRRFEERQKRQALFKLDNEDGFEE
notes: human CLASPIN F2 region, residues 301–630; also called GST fusion of the CLASPIN F2 region (301–630aa); source: bacterially purified (pGEX4T-1), immobilized on Glutathione Sepharose 4B
binding result: binds
